According to article doi:10.1101/429076 (bioRxiv, 2018):

B1: Ube2T wildtype (enzyme, human, UniProt Q9NPD8 1-197, looked up)
chain: MQRASRLKRELHMLATEPPPGITCWQDKDQMDDLRAQILGGANTPYEKGVFKLEVIIPERYPFEPPQIRFLTPIYHPNIDSAGRICLDVLKLPPKGAWRPSLNIATVLTSIQLLMSEPNPDDPLMADISSEFKYNKPAFLKNARQWTEKHARQKQKADEEEMLDNLPEAGDSRVHNSTQKRKASQLVGIEKKFHPDV
B2: FANCL RING domain (FANCL^R, residues 289-375) (domain or fragment, human, UniProt Q9NW38 289-375, looked up)
chain: EIDFPARAILEKSDFTMDCGICYAYQLDGTIPDQVCDNSQCGQPFHQICLYEWLRGLLTSRQSFNIIFGECPYCSKPITLKMSGRKH
B3: Ube2T Glu54Arg (Ube2Tv1 variant with a permissive gate, E54R) (enzyme, human, UniProt Q9NPD8 1-197, looked up)
chain: MQRASRLKRELHMLATEPPPGITCWQDKDQMDDLRAQILGGANTPYEKGVFKLRVIIPERYPFEPPQIRFLTPIYHPNIDSAGRICLDVLKLPPKGAWRPSLNIATVLTSIQLLMSEPNPDDPLMADISSEFKYNKPAFLKNARQWTEKHARQKQKADEEEMLDNLPEAGDSRVHNSTQKRKASQLVGIEKKFHPDV
B4: Ube2T backside β1 double mutant (T23R+W25Q or TW/RQ) (enzyme, human, UniProt Q9NPD8 1-197, looked up)
chain: MQRASRLKRELHMLATEPPPGIRCQQDKDQMDDLRAQILGGANTPYEKGVFKLEVIIPERYPFEPPQIRFLTPIYHPNIDSAGRICLDVLKLPPKGAWRPSLNIATVLTSIQLLMSEPNPDDPLMADISSEFKYNKPAFLKNARQWTEKHARQKQKADEEEMLDNLPEAGDSRVHNSTQKRKASQLVGIEKKFHPDV
B5: Ube2T loop2-loop7 hybrid mutant (D32A, D33A, L92A or DDL/AAA) (enzyme, human, UniProt Q9NPD8 1-197, looked up)
chain: MQRASRLKRELHMLATEPPPGITCWQDKDQMAALRAQILGGANTPYEKGVFKLEVIIPERYPFEPPQIRFLTPIYHPNIDSAGRICLDVLKAPPKGAWRPSLNIATVLTSIQLLMSEPNPDDPLMADISSEFKYNKPAFLKNARQWTEKHARQKQKADEEEMLDNLPEAGDSRVHNSTQKRKASQLVGIEKKFHPDV

Columns and labels:
Test in all cases: ITC
[1] = target: T1, FANCL URD-RING fragment (FANCL^UR, residues 109-375) (human, UniProt Q9NW38 109-375)
T1 sequence (looked up): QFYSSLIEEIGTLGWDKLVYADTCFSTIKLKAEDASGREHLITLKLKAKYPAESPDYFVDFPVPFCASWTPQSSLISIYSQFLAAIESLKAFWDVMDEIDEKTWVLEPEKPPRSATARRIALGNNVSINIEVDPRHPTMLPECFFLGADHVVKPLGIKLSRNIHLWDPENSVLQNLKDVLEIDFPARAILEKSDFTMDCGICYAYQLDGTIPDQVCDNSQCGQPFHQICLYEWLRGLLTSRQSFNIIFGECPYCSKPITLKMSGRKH

Ube2T wildtype = target: B1
[2] = target: B4

Binder	Kd [1] [nM]	dH [1] [kcal/mol]	also measured
B1	~119	6.46	–
B2	–	–	Kd (Ube2T wildtype): ~250 nM; binding result [2]: binds
B3	–	–	binding result [1]: binds
B4	200	–	–
B5	~119	-1.65	–
